Paper PMC12343972 (Nature Communications, 2025)

How the values were obtained:
Rad50-K1181A K1183A = target: T1, Rad50-K1181A K1183A (Saccharomyces cerevisiae, UniProt P12753 1-1312, K1181A;K1183A); assay: EMSA
T1 sequence: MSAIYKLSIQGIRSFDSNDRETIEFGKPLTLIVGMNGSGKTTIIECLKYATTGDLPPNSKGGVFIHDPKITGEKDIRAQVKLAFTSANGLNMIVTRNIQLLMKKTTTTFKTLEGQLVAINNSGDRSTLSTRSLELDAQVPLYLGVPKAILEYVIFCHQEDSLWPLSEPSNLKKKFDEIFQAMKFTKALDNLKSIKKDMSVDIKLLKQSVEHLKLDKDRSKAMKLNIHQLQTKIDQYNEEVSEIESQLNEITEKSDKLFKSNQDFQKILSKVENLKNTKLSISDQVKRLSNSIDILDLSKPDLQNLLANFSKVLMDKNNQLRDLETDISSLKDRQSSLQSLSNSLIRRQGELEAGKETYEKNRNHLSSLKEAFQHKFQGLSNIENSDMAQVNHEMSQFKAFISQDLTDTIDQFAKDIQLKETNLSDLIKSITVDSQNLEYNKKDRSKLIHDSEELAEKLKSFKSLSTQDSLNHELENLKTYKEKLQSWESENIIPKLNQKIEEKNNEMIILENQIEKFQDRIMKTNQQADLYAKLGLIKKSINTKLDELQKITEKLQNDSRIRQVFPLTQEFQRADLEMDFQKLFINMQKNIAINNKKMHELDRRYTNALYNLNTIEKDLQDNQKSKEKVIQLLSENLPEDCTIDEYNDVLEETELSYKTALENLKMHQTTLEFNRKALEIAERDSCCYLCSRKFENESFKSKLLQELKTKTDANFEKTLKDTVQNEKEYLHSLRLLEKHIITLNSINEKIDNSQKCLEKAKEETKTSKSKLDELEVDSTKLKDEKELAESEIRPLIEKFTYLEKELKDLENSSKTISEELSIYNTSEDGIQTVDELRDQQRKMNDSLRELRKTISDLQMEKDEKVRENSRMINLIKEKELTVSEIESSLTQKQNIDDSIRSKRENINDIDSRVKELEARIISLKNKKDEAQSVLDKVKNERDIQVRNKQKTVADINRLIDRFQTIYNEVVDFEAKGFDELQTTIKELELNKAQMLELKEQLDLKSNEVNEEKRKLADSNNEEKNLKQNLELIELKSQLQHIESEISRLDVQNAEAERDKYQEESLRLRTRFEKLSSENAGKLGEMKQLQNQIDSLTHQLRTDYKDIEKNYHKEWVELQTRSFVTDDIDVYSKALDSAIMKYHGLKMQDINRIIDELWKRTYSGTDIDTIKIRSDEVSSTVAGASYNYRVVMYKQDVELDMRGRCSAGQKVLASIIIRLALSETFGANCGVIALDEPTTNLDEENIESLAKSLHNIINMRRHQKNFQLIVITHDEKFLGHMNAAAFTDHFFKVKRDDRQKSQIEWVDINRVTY

Rad50-K60A = target: T2, Rad50-K60A (Saccharomyces cerevisiae, UniProt P12753 1-1312, K60A); assay: EMSA
T2 sequence: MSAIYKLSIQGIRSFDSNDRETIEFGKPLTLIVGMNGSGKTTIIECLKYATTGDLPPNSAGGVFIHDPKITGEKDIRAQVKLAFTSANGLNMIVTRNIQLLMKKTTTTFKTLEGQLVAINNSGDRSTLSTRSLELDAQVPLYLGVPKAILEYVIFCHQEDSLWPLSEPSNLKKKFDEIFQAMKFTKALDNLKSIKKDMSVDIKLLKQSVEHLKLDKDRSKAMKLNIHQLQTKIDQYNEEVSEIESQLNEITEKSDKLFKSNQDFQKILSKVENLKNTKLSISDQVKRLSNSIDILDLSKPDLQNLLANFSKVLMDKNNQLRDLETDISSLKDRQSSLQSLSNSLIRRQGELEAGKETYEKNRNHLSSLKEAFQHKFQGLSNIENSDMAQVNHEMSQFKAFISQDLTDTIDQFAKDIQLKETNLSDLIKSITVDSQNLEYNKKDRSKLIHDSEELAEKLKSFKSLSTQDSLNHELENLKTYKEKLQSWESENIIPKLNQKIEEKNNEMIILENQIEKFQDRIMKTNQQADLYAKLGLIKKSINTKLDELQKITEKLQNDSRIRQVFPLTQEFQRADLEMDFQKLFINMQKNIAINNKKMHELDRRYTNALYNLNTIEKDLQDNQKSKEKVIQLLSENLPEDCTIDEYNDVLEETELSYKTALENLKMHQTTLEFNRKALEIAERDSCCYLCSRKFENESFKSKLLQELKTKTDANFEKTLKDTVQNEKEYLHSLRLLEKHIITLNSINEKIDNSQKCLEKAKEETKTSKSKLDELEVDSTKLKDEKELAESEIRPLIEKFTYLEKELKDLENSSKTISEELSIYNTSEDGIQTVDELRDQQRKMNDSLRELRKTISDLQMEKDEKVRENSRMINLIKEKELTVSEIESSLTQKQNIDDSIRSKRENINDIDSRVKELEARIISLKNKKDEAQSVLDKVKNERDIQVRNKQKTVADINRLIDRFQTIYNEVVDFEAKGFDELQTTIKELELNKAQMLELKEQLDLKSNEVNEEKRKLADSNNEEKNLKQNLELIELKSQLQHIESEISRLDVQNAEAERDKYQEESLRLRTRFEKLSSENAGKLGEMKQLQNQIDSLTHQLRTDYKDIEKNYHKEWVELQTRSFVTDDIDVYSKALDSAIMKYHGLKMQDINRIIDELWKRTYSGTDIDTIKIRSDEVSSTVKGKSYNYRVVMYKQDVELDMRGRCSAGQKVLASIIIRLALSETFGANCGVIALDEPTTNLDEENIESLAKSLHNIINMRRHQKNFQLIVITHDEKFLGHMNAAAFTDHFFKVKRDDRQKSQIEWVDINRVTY

B1: 83-mer dsDNA (EMSA) (dsDNA)
DNA 1: TTGATAAGAGGTCATTTTTGCGGATGGCTTAGAGCTTAATTGCTGAATCTGGTGCTGTAGCTCAACATGTTTTAAATATGCAA
DNA 2: TTGCATATTTAAAACATGTTGAGCTACAGCACCAGATTCAGCAATTAAGCTCTAAGCCATCCGCAAAAATGACCTCTTATCAA
Rad50-K1181A K1183A
  binding result: binds
Rad50-K60A
  binding result: binds
